The target in assay [1] is T1, C-type lectin-like receptor 2 (CLEC-2) (Homo sapiens, UniProt Q9P126).
T1 construct: gene CLEC1B; extracellular region of CLEC-2 (351–890, NM_016509), human IgG1 Fc-fusion (Fc-CLEC-2); with podoplanin
The assay is described as follows: pull-down of podoplanin (pod-HeLa lysate) with purified Fc-CLEC-2 pre-incubated with compound; slot blot and western blot. The format is biochemical. A general note: A western blot detects proteins with antibodies after separation by electrophoresis.

Assay [2] addresses Fc moiety alone (human IgG1 Fc) (human). The assay is described as follows: SDS-PAGE under reducing and non-reducing conditions; purified protein, with or without 2-mercaptoethanol, Coomassie blue staining.
Assay [3] deals with CLEC-2 (Homo sapiens) (UniProt Q9P126). To be noted: cited from earlier work.
Assay [4] concerns the target immunoglobulin Fc domain-CLEC-2 fusion protein (Fc-CLEC-2) (human) (UniProt Q9P126). The assay is described as follows: pull-down; standard combination (25 ug/mL Fc-CLEC-2, 1.5 mg/mL pod-HeLa lysate); hematoporphyrin or 2CP pre-incubated with Fc-CLEC-2 for 30 min, 2% DMSO control, in the dark; 10 uL slot-blotted; podoplanin intensity normalised to CLEC-2 intensity.
Assay [5] has the same target. In words: pull-down; Fc-CLEC-2 or Fc (25 ug/mL) mixed in solution with pod-HeLa lysate (1.5 mg/mL; concentrations varied in some panels) on ice for 2 h, captured on protein A beads, washed 4x with TBST in a centrifugal filter unit, acid elution, SDS-PAGE and western blot with anti-podoplanin.

The inhibition is how much of the control response was suppressed. As a reminder, the stoichiometry N is a count of units in the complex or per binding partner. As a reminder, the Kd is the free concentration of one partner at which half of the binding sites on the other are occupied at equilibrium, for simple one-to-one binding.

Chain of immunoglobulin Fc domain-CLEC-2 fusion protein (Fc-CLEC-2) (human) (Q9P126 whole entry, the tested form may be a part): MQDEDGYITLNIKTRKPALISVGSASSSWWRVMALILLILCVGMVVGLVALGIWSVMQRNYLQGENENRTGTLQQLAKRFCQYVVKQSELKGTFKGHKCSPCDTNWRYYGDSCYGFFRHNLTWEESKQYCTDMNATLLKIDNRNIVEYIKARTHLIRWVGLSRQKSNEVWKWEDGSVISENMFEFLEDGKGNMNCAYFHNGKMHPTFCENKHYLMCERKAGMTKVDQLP
Chain of CLEC-2 (Homo sapiens) (Q9P126 whole entry, the tested form may be a part): as above
T1 sequence (Q9P126 50-229, one chain of several): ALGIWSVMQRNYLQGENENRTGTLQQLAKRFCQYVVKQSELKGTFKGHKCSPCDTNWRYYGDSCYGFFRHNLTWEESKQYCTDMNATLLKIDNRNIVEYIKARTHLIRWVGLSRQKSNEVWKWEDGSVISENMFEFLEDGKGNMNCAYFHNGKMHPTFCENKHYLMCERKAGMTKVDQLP

Turning to `CC1=C(CCC(=O)O)c2cc3[nH]c(cc4nc(cc5[nH]c(cc1n2)c(C)c5C(C)O)C(C)=C4C(C)O)c(C)c3CCC(=O)O` (centres unmarked) [HPy, hematoporphyrin], in assay [1], the inhibition at 20 µM was approximately 70%.
For “Fc moiety alone (human IgG1 Fc) (domain or fragment)”, the stoichiometry N in assay [2] is 2.
podoplanin (from UniProt Q86YL7): in assay [3], the Kd was 25 µM.

B1: podoplanin (full-length, from podoplanin-overexpressing HeLa cells) (natural protein)
chain: ASTGQPEDDTETTGLEGGVAMPGAEDDVVTPGTSEDRYKSGLTTLVATSVNSVTGIRIEDLPTSESTVHAQEQSPSATASNVATSHSTEKVDGDTQTTVEKDGLSTVTLVGIIVGVLLAIGFIGAIIVVVMRKMSGRYSP
For the molecule B1, the percent inhibition of the pull-down by 20 uM hematoporphyrin in assay [4] was determined as 70%. In assay [5], the percent of podoplanin recovered in the pull-down is less than 20%.

These data come from paper PMC6760769, “A pull-down and slot blot-based screening system for inhibitor compounds of the podoplanin-CLEC-2 interaction” (PLoS ONE, 2019).
